Test results taken from patent US11161884B2 (SAVID THERAPEUTICS INC., priority 2014, dated 2021).
Each block holds one molecule with its values, some of them ahead of it.

Columns and labels:
[1] = SPR interaction of streptavidin mutants with Compound C (Comparative Example 2); format: binding; details: Compound C 1.8-1800 nM; protein immobilized via His-Tag
Description: (§1) Using the purified two wild-type core streptavidin mutants (cSA-Y43A, cSA-S45A) described above, and purified V2122 protein, interaction with Compound C was investigated by surface plasmon resonance (SPR). More specifically, using Biacore T200 (GE Healthcare BioScience Corp.) as a measuring instrument, and Sensor Chip NTA (GE Healthcare BioScience Corp.) as a sensor chip, the protein was immobilized on the sensor chip by way of His-Tag having been fused to the core protein. The running buffer was prepared using HBS-P(+), as described in the manual. A dilution series of Compound was prepared by using the running buffer in seven steps of 1.8 nM, 9 nM, 18 nM, 90 nM, 180 nM, 900 nM and 1800 nM, to obtain data.

[2] = Immunogenicity testing, antibody in serum analyzed by SPR; format: in vivo, crab-eating monkey (Macaca fascicularis); details: 1 mg purified protein administered three times (Day 0, 21, 42); four monkeys
Description: Immunogenicity testing was conducted using four crab-eating monkeys. One milligram of the purified protein was administered three times. Before administration, blood was collected for preparing a negative control serum, followed by three times of administration of 1 mg each of purified protein. More specifically, letting the first day of administration of Day 0, the second administration fell on Day 21, and the third administration fell on Day 42. For V2122, blood was collected on Days 7, 14, 28 and 35 to prepare serum samples, and for the other, blood was collected on Days 7, 14, 28, 35, 49 and 56 to prepare serum samples.
Antibody against V2122 in the serum samples was analyzed by surface plasmon resonance (SPR). More specifically, Biacore T200 (GE Healthcare BioScience Corp.) was used as a measuring instrument, which was operated in the mode using immunogenicity package. The sensor chip was CM5. As instructed by the manual, V2122 protein (10 μg/mL) was immobilized on the CM5 sensor chip using an amine coupling kit. Serum was diluted ten-fold with a running buffer (HBS-EP, GE Healthcare BioScience Corp.) for the interaction analysis. More specifically, the serum diluted ten-fold was loaded into the running buffer at a flow rate of 10 μL/min for 5 minutes. The obtained sensorgram was analyzed using an analytical software named Biacore T200 Evaluation Software.

[3] = SPR interaction of streptavidin mutants with biotin (Comparative Example 1); format: binding; details: biotin 1.8-1800 nM; protein immobilized via His-Tag
Description: as §1, with “More” for “Using the purified two wild-type core streptavidin mutants (cSA-Y43A, cSA-S45A) described above, and purified V2122 protein, interaction with Compound C was investigated by surface plasmon resonance (SPR). More”

[4] = target: T1, Pro-EPR-mFc (extracellular domain of epiregulin fused with murine Fc region) (Homo sapiens, UniProt O14944); experiment: SPR antigen binding potential (Biacore T200); details: for Kd: SPR kinetics assay, Pro-EPR-mFc captured on CM5, read-out: affinity to the antigen after FITC labeling
T1 construct: made in house; host or cells: Expi293F cells, pcDNA3.4 vector
Description: Next, in order to confirm whether the labeling reduced the binding potential or not, the antigen binding potential of anti-epiregulin scFv-V2122-FITC was confirmed by SPR (Biacore T200). More specifically, protein (Pro-EPR-mFc) obtained by fusing the extracellular domain of epiregulin which functions as a ligand with murine Fe region is captured on the sensor chip CM5 having anti-Murine IgG antibody immobilized thereon, and then eluted for kinetics assay with an analyte composed of a two-fold dilution series prepared by diluting a 20 nM anti-epiregulin scFv-V2122-FITC solution into nine steps (FIG. 14). […] Also epiregulin IgG and anti-epiregulin scFv protein were investigated in the binding test in the same way as described above, using a two-fold dilution series prepared by diluting a 300 nM solution into nine steps (FIG. 14). Data was analyzed using Biacore evaluation software.

[5] = test system: DLD1 cells; experiment: Cell staining and analysis of internalization; format: cell-based, human; details: for staining of the surface of the cell membrane: DLD1, 25 nM, 50 nM and 100 nM
Description: Human colorectal cancer-derived DLD1 cells, used for cell staining, were cultured in a complete medium RPNI1640 (containing 10% FBS), and seeded in uClear 96-well plate (Greiner) in a density of 1×10^4 cells/well, two days before the assay. In the cell staining, first the medium was replaced with a complete medium added with Hoechst 33342 so as to adjust the concentration to 1 μM, and 15 minutes after, each of anti-epiregulin scFv-V2122-FITC, epiregulin IgG-FITC and anti-epiregulin scFv-FITC was added to the individual wells so as to adjust the concentration to 25 nM, 50 nM and 100 nM.
Binding of antibody to the cell surface, and internalization were analyzed using IN Cell Analyzer 6000 (GE Healthcare BioScience Corp.), and recorded by time lapse imaging at 5 minute intervals.

[6] = test system: DLD1 cells having epiregulin expressed; experiment: FACS analysis of cell surface binding potential; format: cell-based, human; details: 0, 0.5, 5, 50 nM, on ice 30 minutes
Description: Cell surface binding potential was determined by FACS, using labeled antibodies that are anti-epiregulin scFv-V2122-FITC, epiregulin IgG-FITC and anti-epiregulin scFv-FITC. More specifically, dilute solutions of the labeled antibodies having concentrations of 0 nM, 0.5 nM, 5 nM and 50 nM were allowed to react on ice for 30 minutes with DLD1 cells (1×10^6 cells/mL, […]) having epiregulin expressed therein, and then fluorescence was measured using flow cytometer guava easyCyte 5. The measurement followed the usage and dosage instructions given in the manual of the instrument.

[7] = test system: DLD1 tumor; experiment: In vivo imaging, DLD1 heterotransplantation model; set-up: species or system nude mice; details: 25, 50, 100 μg intravenously, pre-labeled with Psyche F-IRDye 800; imaging 2, 24, 48 hours
Description: The thus purified anti-epiregulin scFv-V2122 was mixed with Psyche F-IRDye 800 (Compound 44 in Example) dissolved in DMSO (final concentration was ten-fold molar concentration), and the mixture was incubated on ice for 10 minutes. The buffer was then replaced with Japanese Pharmacopoeia physiological saline (Otsuka Pharmaceutical Co., Ltd.) using Zeba Spin Desalting Column (Thermo Fisher Scientific Inc.) and was stored under cooling. Epiregulin IgG was labeled using ICG Labeling Kit-NH2 (Dojindo Laboratories).
Suspension liquid of human colorectal cancer-derived DLD1 cell and Matrigel Matrix (Corning) were mixed in a ratio of 1:1 (5×10^6 cells/0.1 mL), and 0.1 mL of the mixed liquid was administered subcutaneously in the left side of 5 to 6-week-old female nude mice (Sankyo Labo Service Corporation, Inc.). The mice were bred for several weeks to produce tumor. One week before imaging, the feed was switched to a low fluorescence feed (iVid #1, Oriental Yeast Co., Ltd.) and the breeding was continued. […]
Anti-epiregulin scFv-V2122 antibody (25 μg, 50 μg, 100 μg) preliminarily labeled with fluorescence by allowing it to react with Psyche F-IRDye 800 (Compound 44 in Example), or fluorescent-labeled epiregulin IgG (50 μg) was intravenously administered to nude mice having established DLD1 tumor. […]

T1 sequence (O14944 with tags, fused parts or gaps): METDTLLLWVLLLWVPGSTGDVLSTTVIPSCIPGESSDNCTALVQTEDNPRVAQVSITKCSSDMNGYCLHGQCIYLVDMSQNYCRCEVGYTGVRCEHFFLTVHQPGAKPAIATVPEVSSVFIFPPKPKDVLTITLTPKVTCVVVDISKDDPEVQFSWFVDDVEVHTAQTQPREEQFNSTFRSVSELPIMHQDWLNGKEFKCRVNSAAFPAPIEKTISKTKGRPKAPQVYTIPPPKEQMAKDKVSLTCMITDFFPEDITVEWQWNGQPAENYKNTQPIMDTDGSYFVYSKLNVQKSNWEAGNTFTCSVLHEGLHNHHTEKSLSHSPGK

Kd [4]: 120 nM
B2: anti-epiregulin scFv-FITC: FITC-labeled anti-epiregulin scFv protein (SEQ ID NO: 22) (protein)
scFv: MKYLLPTAAAGLLLLAAQPAMAQVQLQQSGAEVKKPGASVKVSCKASGFNIKDTYMHWVRQAPEQGLEWMGRIDPLNDKTKYDPKFQGRVTITADTSTNTAYLELSSLTSEDTAVYYCARGGGDPVFVYWGQGTLVTVSASSGGGGSGGGGSGGGGSGGGGSGGDIQMTQSPSSLSASVGDRVTITCKASQDINKYLAWYQHKPGQAPRLLIHYTSTLHPGIPSRFSGSGSGTDFTFSISSLQPEDIATYYCLQYDNLRTFGGGTKVEIKRTSHHHHHH
modifications: FITC label
staining of the surface of the cell membrane [5]: staining of the surface of the cell membrane was observed
cell surface binding potential by FACS [6]: level of binding potential lower than those shown by the former two

affinity relative to epiregulin IgG-FITC and anti-epiregulin scFv-FITC [4]: 100 to 1000 times
Kd [4]: 0.23 nM
B4: anti-epiregulin scFv-V2122-FITC: FITC-labeled product of purified anti-epiregulin scFv-V2122 (protein)
scFv: QVQLQQSGAEVKKPGASVKVSCKASGFNIKDTYMHWVRQAPEQGLEWMGRIDPLNDKTKYDPKFQGRVTITADTSTNTAYLELSSLTSEDTAVYYCARGGGDPVFVYWGQGTLVTVSASSGGGGSGGGGSGGGGSGGGGSGGDIQMTQSPSSLSASVGDRVTITCKASQDINKYLAWYQHKPGQAPRLLIHYTSTLHPGIPSRFSGSGSGTDFTFSISSLQPEDIATYYCLQYDNLRTFGGGTKVEIKRTSGGGGSGGGGAEAGITGTWSDQLGDTFIVTAGADGALTGTYENAVGGAESRYVLTGRYDSAPATDGSGTALGWTVAWKNNSKNAHSATTWSGQYVGGADAKINTQWLLTSGTTNANAWKSTLVGHDTFTKVKPSAASHHHHHH
time at which internalization began to be observed after addition of antibody ([5]; DLD1): approximately 10 minutes
staining of the surface of the cell membrane [5]: staining of the surface of the cell membrane was observed
migration of fluorescence into the cytoplasm ([5]; DLD1, sixty-five minutes after addition): almost entire part of fluorescence was found to migrate into the cytoplasm
internalization ([5]; DLD1, time lapse imaging at 5 minute intervals): distinct internalization was observed
cell surface binding potential by FACS [6]: equivalent levels of binding potential

The next lines start with the molecule.

B1: V2122: glycine mutant (N49G) of V212 streptavidin mutant; amino acid sequence SEQ ID NO: 4 (protein)
chain: AEAGITGTWSDQLGDTFIVTAGADGALTGTYENAVGGAESRYVLTGRYDSAPATDGSGTALGWTVAWKNNSKNAHSATTWSGQYVGGADAKINTQWLLTSGTTNANAWKSTLVGHDTFTKVKPSAAS
interaction with Compound C (sensorgram) [1]: specific binding showing only an extremely slow dissociation
immunogenicity [2]: low as compared with the immunogenicity of the wild-type streptavidin and LISA314
interaction with biotin (sensorgram) [3]: absence of specific binding

B3: anti-epiregulin scFv-V2122: fusion protein formed by anti-epiregulin scFv and V2122; SEQ ID NO: 30 (protein)
chain: MKYLLPTAAAGLLLLAAQPAMAQVQLQQSGAEVKKPGASVKVSCKASGFNIKDTYMHWVRQAPEQGLEWMGRIDPLNDKTKYDPKFQGRVTITADTSTNTAYLELSSLTSEDTAVYYCARGGGDPVFVYWGQGTLVTVSASSGGGGSGGGGSGGGGSGGGGSGGDIQMTQSPSSLSASVGDRVTITCKASQDINKYLAWYQHKPGQAPRLLIHYTSTLHPGIPSRFSGSGSGTDFTFSISSLQPEDIATYYCLQYDNLRTFGGGTKVEIKRTSGGGGSGGGGAEAGITGTWSDQLGDTFIVTAGADGALTGTYENAVGGAESRYVLTGRYDSAPATDGSGTALGWTVAWKNNSKNAHSATTWSGQYVGGADAKINTQWLLTSGTTNANAWKSTLVGHDTFTKVKPSAASHHHHHH
accumulation in tumor [7]: accumulate in the tumor of the model mice earlier (2 hours after administration) than the labeled IgG
